Where two headings read alike, the source gives them in different places.
Columns and labels:
Experiment in all cases: cell-based or functional assay
[1] = target: T1, CLL1 on CLL1-expressing cells (U937, HL60) (human, UniProt Q5QGZ9 1-265)
T1 sequence (looked up): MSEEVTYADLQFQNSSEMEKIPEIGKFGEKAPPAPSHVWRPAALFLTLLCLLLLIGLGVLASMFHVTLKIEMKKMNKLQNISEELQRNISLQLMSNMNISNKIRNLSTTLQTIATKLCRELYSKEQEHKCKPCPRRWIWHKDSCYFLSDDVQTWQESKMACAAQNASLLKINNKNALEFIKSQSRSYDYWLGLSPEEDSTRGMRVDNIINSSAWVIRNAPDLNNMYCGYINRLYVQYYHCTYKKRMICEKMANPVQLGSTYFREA

[2] = target: T1, CLL1 on CLL1-expressing cells (U937, …); remark: listed apart in the source
[3] = target: T1, CLL1 on CLL1-expressing cells (U937, …); remark: listed apart in the source
[4] = target: T1, CLL1 on CLL1-expressing cells (U937, …); remark: listed apart in the source
[5] = target: T2, B7H3 on B7H3-expressing cells (NCI-H358, NCI-H1048) (human, UniProt Q5ZPR3 29-534)
T2 sequence (looked up): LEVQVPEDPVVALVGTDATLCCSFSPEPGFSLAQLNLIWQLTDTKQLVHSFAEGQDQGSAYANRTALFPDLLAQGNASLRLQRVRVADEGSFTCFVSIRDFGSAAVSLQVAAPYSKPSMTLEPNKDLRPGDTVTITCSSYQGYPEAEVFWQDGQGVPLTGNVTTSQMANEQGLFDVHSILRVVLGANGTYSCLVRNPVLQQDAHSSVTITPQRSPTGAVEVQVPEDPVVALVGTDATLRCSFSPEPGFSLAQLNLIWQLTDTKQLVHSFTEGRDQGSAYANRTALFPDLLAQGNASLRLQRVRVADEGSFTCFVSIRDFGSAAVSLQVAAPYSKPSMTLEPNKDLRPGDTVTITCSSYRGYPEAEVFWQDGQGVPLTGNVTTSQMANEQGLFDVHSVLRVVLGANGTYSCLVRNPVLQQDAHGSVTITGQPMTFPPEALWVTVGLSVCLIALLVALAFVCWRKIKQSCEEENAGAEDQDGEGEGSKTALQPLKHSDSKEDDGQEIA

B1: ADC3-2 (antibody, human IgG1, kappa, V domains shown)
VH: EVQLVQSGAEVKKPGASVKVSCKASGYSFTDYYMHWVRQAPGQGLEWIGRINPYAGAAFYSQNFKDRVTLTVDTSTSTAYLELSSLRSEDTAVYYCAIERGADLEGYAMDYWGQGTLVTVSS
VL: DIQMTQSPSSLSASVGDRVTITCRASQSVSTSSYNYMHWYQQKPGKPPKLLIKYASNLESGVPSRFSGSGSGTDFTLTISSLQPEDFATYYCQHSWEIPLTFGQGTKVEIKR
modifications: conjugator-linker-payload on cysteine thiols after TCEP reduction; positions not given
EC50 (nM) direct cellular killing, HL60 [1]: 8.2 nM | EC50 (nM) direct cellular killing, U937 [1]: 0.2 nM | Emax (%) direct cellular killing, HL60 [1]: 55.9%

B2: ADC3-7 (antibody, human IgG1, kappa, V domains shown)
VH: EVQLVQSGAEVKKPGASVKVSCKASGYSFTDYYMHWVRQAPGQGLEWIGRINPYAGAAFYSQNFKDRVTLTVDTSTSTAYLELSSLRSEDTAVYYCAIERGADLEGYAMDYWGQGTLVTVSS
VL: DIQMTQSPSSLSASVGDRVTITCRASQSVSTSSYNYMHWYQQKPGKPPKLLIKYASNLESGVPSRFSGSGSGTDFTLTISSLQPEDFATYYCQHSWEIPLTFGQGTKVEIKR
modifications: conjugator-linker-payload on cysteine thiols after TCEP reduction; positions not given
EC50 (nM) direct cellular killing, HL60 [2]: 0.4 nM | EC50 (nM) direct cellular killing, U937 [2]: 0.3 nM

B3: ADC3-10 (antibody, human IgG1, kappa, V domains shown)
VH: EVQLVQSGAEVKKPGASVKVSCKASGYSFTDYYMHWVRQAPGQGLEWIGRINPYAGAAFYSQNFKDRVTLTVDTSTSTAYLELSSLRSEDTAVYYCAIERGADLEGYAMDYWGQGTLVTVSS
VL: DIQMTQSPSSLSASVGDRVTITCRASQSVSTSSYNYMHWYQQKPGKPPKLLIKYASNLESGVPSRFSGSGSGTDFTLTISSLQPEDFATYYCQHSWEIPLTFGQGTKVEIKR
modifications: conjugator-linker-payload on cysteine thiols after TCEP reduction; positions not given
EC50 (nM) direct cellular killing, HL60 [3]: 1.2 nM | EC50 (nM) direct cellular killing, U937 [3]: 0.7 nM | Emax (%) direct cellular killing, HL60 [3]: 82.2%

B4: ADC3-1 (antibody, human IgG1, kappa, V domains shown)
VH: EVQLVQSGAEVKKPGASVKVSCKASGYSFTDYYMHWVRQAPGQGLEWIGRINPYAGAAFYSQNFKDRVTLTVDTSTSTAYLELSSLRSEDTAVYYCAIERGADLEGYAMDYWGQGTLVTVSS
VL: DIQMTQSPSSLSASVGDRVTITCRASQSVSTSSYNYMHWYQQKPGKPPKLLIKYASNLESGVPSRFSGSGSGTDFTLTISSLQPEDFATYYCQHSWEIPLTFGQGTKVEIKR
modifications: conjugator-linker-payload on cysteine thiols after TCEP reduction; positions not given
EC50 (nM) direct cellular killing, HL60 [1]: 5.7 nM | EC50 (nM) direct cellular killing, U937 [1]: 0.5 nM

B5: ADC3-5 (antibody, human IgG1, kappa, V domains shown)
VH: EVQLVQSGAEVKKPGASVKVSCKASGYSFTDYYMHWVRQAPGQGLEWIGRINPYAGAAFYSQNFKDRVTLTVDTSTSTAYLELSSLRSEDTAVYYCAIERGADLEGYAMDYWGQGTLVTVSS
VL: DIQMTQSPSSLSASVGDRVTITCRASQSVSTSSYNYMHWYQQKPGKPPKLLIKYASNLESGVPSRFSGSGSGTDFTLTISSLQPEDFATYYCQHSWEIPLTFGQGTKVEIKR
modifications: conjugator-linker-payload on cysteine thiols after TCEP reduction; positions not given
EC50 (nM) direct cellular killing, U937 [4]: 1 nM | Emax (%) direct cellular killing, HL60 [4]: 79.8%

B6: ADC3-3 (antibody, human IgG1, kappa, V domains shown)
VH: EVQLVQSGAEVKKPGASVKVSCKASGYSFTDYYMHWVRQAPGQGLEWIGRINPYAGAAFYSQNFKDRVTLTVDTSTSTAYLELSSLRSEDTAVYYCAIERGADLEGYAMDYWGQGTLVTVSS
VL: DIQMTQSPSSLSASVGDRVTITCRASQSVSTSSYNYMHWYQQKPGKPPKLLIKYASNLESGVPSRFSGSGSGTDFTLTISSLQPEDFATYYCQHSWEIPLTFGQGTKVEIKR
modifications: conjugator-linker-payload on cysteine thiols after TCEP reduction; positions not given
EC50 (nM) direct cellular killing, HL60 [1]: 1.6 nM | EC50 (nM) direct cellular killing, U937 [1]: 0.2 nM

B7: ADC3-4 (antibody, human IgG1, kappa, V domains shown)
VH: EVQLVQSGAEVKKPGASVKVSCKASGYSFTDYYMHWVRQAPGQGLEWIGRINPYAGAAFYSQNFKDRVTLTVDTSTSTAYLELSSLRSEDTAVYYCAIERGADLEGYAMDYWGQGTLVTVSS
VL: DIQMTQSPSSLSASVGDRVTITCRASQSVSTSSYNYMHWYQQKPGKPPKLLIKYASNLESGVPSRFSGSGSGTDFTLTISSLQPEDFATYYCQHSWEIPLTFGQGTKVEIKR
modifications: conjugator-linker-payload on cysteine thiols after TCEP reduction; positions not given
EC50 (nM) direct cellular killing, HL60 [1]: 1.1 nM | EC50 (nM) direct cellular killing, U937 [1]: 0.2 nM | Emax (%) direct cellular killing, HL60 [1]: 98%

B8: ADC3-9 (antibody, human IgG1, kappa, V domains shown)
VH: EVQLVQSGAEVKKPGASVKVSCKASGYSFTDYYMHWVRQAPGQGLEWIGRINPYAGAAFYSQNFKDRVTLTVDTSTSTAYLELSSLRSEDTAVYYCAIERGADLEGYAMDYWGQGTLVTVSS
VL: DIQMTQSPSSLSASVGDRVTITCRASQSVSTSSYNYMHWYQQKPGKPPKLLIKYASNLESGVPSRFSGSGSGTDFTLTISSLQPEDFATYYCQHSWEIPLTFGQGTKVEIKR
modifications: conjugator-linker-payload on cysteine thiols after TCEP reduction; positions not given
EC50 (nM) direct cellular killing, HL60 [2]: 1.7 nM | EC50 (nM) direct cellular killing, U937 [2]: 0.6 nM

B9: ADC3-12 (antibody, human IgG1, kappa, V domains shown)
VH: EVQLVQSGAEVKKPGASVKVSCKASGYSFTDYYMHWVRQAPGQGLEWIGRINPYAGAAFYSQNFKDRVTLTVDTSTSTAYLELSSLRSEDTAVYYCAIERGADLEGYAMDYWGQGTLVTVSS
VL: DIQMTQSPSSLSASVGDRVTITCRASQSVSTSSYNYMHWYQQKPGKPPKLLIKYASNLESGVPSRFSGSGSGTDFTLTISSLQPEDFATYYCQHSWEIPLTFGQGTKVEIKR
modifications: conjugator-linker-payload on cysteine thiols after TCEP reduction; positions not given
EC50 (nM) direct cellular killing, HL60 [3]: 8 nM | EC50 (nM) direct cellular killing, U937 [3]: 0.7 nM | Emax (%) direct cellular killing, HL60 [3]: 81%

B10: ADC3-8 (antibody, human IgG1, kappa, V domains shown)
VH: EVQLVQSGAEVKKPGASVKVSCKASGYSFTDYYMHWVRQAPGQGLEWIGRINPYAGAAFYSQNFKDRVTLTVDTSTSTAYLELSSLRSEDTAVYYCAIERGADLEGYAMDYWGQGTLVTVSS
VL: DIQMTQSPSSLSASVGDRVTITCRASQSVSTSSYNYMHWYQQKPGKPPKLLIKYASNLESGVPSRFSGSGSGTDFTLTISSLQPEDFATYYCQHSWEIPLTFGQGTKVEIKR
modifications: conjugator-linker-payload on cysteine thiols after TCEP reduction; positions not given
EC50 (nM) direct cellular killing, HL60 [2]: 0.1 nM | EC50 (nM) direct cellular killing, U937 [2]: 0.2 nM

B11: ADC3-11 (antibody, human IgG1, kappa, V domains shown)
VH: EVQLVQSGAEVKKPGASVKVSCKASGYSFTDYYMHWVRQAPGQGLEWIGRINPYAGAAFYSQNFKDRVTLTVDTSTSTAYLELSSLRSEDTAVYYCAIERGADLEGYAMDYWGQGTLVTVSS
VL: DIQMTQSPSSLSASVGDRVTITCRASQSVSTSSYNYMHWYQQKPGKPPKLLIKYASNLESGVPSRFSGSGSGTDFTLTISSLQPEDFATYYCQHSWEIPLTFGQGTKVEIKR
modifications: conjugator-linker-payload on cysteine thiols after TCEP reduction; positions not given
EC50 (nM) direct cellular killing, HL60 [3]: 4.6 nM | EC50 (nM) direct cellular killing, U937 [3]: 12.8 nM | Emax (%) direct cellular killing, HL60 [3]: 43.9% | Emax (%) direct cellular killing, U937 [3]: 78.7%

B12: ADC3-6 (antibody, human IgG1, kappa, V domains shown)
VH: EVQLVQSGAEVKKPGASVKVSCKASGYSFTDYYMHWVRQAPGQGLEWIGRINPYAGAAFYSQNFKDRVTLTVDTSTSTAYLELSSLRSEDTAVYYCAIERGADLEGYAMDYWGQGTLVTVSS
VL: DIQMTQSPSSLSASVGDRVTITCRASQSVSTSSYNYMHWYQQKPGKPPKLLIKYASNLESGVPSRFSGSGSGTDFTLTISSLQPEDFATYYCQHSWEIPLTFGQGTKVEIKR
modifications: conjugator-linker-payload on cysteine thiols after TCEP reduction; positions not given
EC50 (nM) direct cellular killing, HL60 [4]: 0.4 nM | EC50 (nM) direct cellular killing, U937 [4]: 0.6 nM

B13: ADC4-1 (antibody, human IgG1, kappa, V domains shown)
VH: QVQLVQSGAEVKKPGSSVKVSCKASGYTFTNYVMHWVRQAPGQGLEWMGYINPYNDDVKYNEKFKGRVTITADESTSTAYMELSSLRSEDTAVYYCARWGYYGSPLYYFDYWGQGTLVTVSS
VL: EIVLTQSPATLSLSPGERATLSCRASSRLIYMHWYQQKPGQAPRPLIYATSNLASGIPARFSGSGSGTDFTLTISSLEPEDFAVYYCQQWNSNPPTFGQGTKVEIKR
modifications: conjugator-linker-payload on cysteine thiols after TCEP reduction; positions not given
EC50 (nM) direct cellular killing, NCI-H358 [5]: 0.1 nM | EC50 (nM) direct cellular killing, NCI-H1048 [5]: 0.6 nM | Emax (%) direct cellular killing, NCI-H358 [5]: 82.8% | Emax (%) direct cellular killing, NCI-H1048 [5]: 83.6%

B14: ADC4-3 (antibody, human IgG1, kappa, V domains shown)
VH: QVQLVQSGAEVKKPGSSVKVSCKASGYTFTNYVMHWVRQAPGQGLEWMGYINPYNDDVKYNEKFKGRVTITADESTSTAYMELSSLRSEDTAVYYCARWGYYGSPLYYFDYWGQGTLVTVSS
VL: EIVLTQSPATLSLSPGERATLSCRASSRLIYMHWYQQKPGQAPRPLIYATSNLASGIPARFSGSGSGTDFTLTISSLEPEDFAVYYCQQWNSNPPTFGQGTKVEIKR
modifications: conjugator-linker-payload on cysteine thiols after TCEP reduction; positions not given
EC50 (nM) direct cellular killing, NCI-H358 [5]: 0.1 nM | EC50 (nM) direct cellular killing, NCI-H1048 [5]: 1.6 nM | Emax (%) direct cellular killing, NCI-H358 [5]: 79.9% | Emax (%) direct cellular killing, NCI-H1048 [5]: 80%

B15: ADC4-2 (antibody, human IgG1, kappa, V domains shown)
VH: QVQLVQSGAEVKKPGSSVKVSCKASGYTFTNYVMHWVRQAPGQGLEWMGYINPYNDDVKYNEKFKGRVTITADESTSTAYMELSSLRSEDTAVYYCARWGYYGSPLYYFDYWGQGTLVTVSS
VL: EIVLTQSPATLSLSPGERATLSCRASSRLIYMHWYQQKPGQAPRPLIYATSNLASGIPARFSGSGSGTDFTLTISSLEPEDFAVYYCQQWNSNPPTFGQGTKVEIKR
modifications: conjugator-linker-payload on cysteine thiols after TCEP reduction; positions not given
EC50 (nM) direct cellular killing, NCI-H358 [5]: 0.1 nM | Emax (%) direct cellular killing, NCI-H358 [5]: 81% | Emax (%) direct cellular killing, NCI-H1048 [5]: 62%
